# Patent US20230416347A1
# pEC50: −log10 of the molar value.
# Experiments:
# Assay in all cases: EuLISA
# [1] = molecular target: KEN hATTR extract (human) (UniProt P02766)
# SHI ALλ liver extract = molecular target: SHI ALλ liver extract
# TAL ALκ liver extract = molecular target: TAL ALκ liver extract
# [2] = molecular target: Per125 wtATTR extract (human) (UniProt P02766)
# rVλ6Wil fibrils = molecular target: rVλ6Wil fibrils
Substance,LogEC50 [1],Max [1],LogEC50 (SHI ALλ liver extract),Max (SHI ALλ liver extract),LogEC50 (TAL ALκ liver extract),Max (TAL ALκ liver extract),LogEC50 [2],Max [2],pEC50 (rVλ6Wil fibrils),LogEC50 (rVλ6Wil fibrils),Max (rVλ6Wil fibrils)
chimeric antibody c11-1F4,-1.36 -log(M),19700,,,,,,,,,
m11-1F4 (antibody),2.39 -log(M),294000,,,,,,,,,
hIgG1 (antibody),9.06 -log(M),-0.8,7.88 -log(M),2.5,3 -log(M),2220,7.92 -log(M),8.38,5.89,5.89 -log(M),39.3
